The target in this test is His-tagged human CRMP-2 (residues 1-490) (human) (UniProt Q16555). The test is described as follows: SPR. In general terms: Surface plasmon resonance follows binding to a sensor surface in real time, without labels.

Consider “Recombinant human calmodulin (from UniProt P0DP23 1-149) (natural protein)”, for which the Kd – broadly, the free concentration of one partner at which half of the binding sites on the other are occupied at equilibrium, for simple one-to-one binding – amounted to 75 µM.

For the origin of these results see article PMC4428678.
